{"source": "patent US6521748B2", "about": "“Polynucleotide encoding a mutant Rhodotorula glutinis tyrosine ammonia lyase polypeptide” (E. I. du Pont de Nemours and Company, priority 1999, dated 2003)", "key": {"[1]": {"system": "tyrosine-auxotrophic E. coli strain AT2471 containing pCA18Km", "experiment": "Toxicity of PHCA to tyrosine-auxotrophic E. coli on minimal plate", "format": "cell-based", "set-up": "key to cell growth: −: no growth; +: very poor growth; ++: poor growth; +++: good growth", "settings": "for cell growth: 0.004 mM tyrosine added", "method": "(§1) In order to find the suitable condition for selection, cell growth was tested on a minimal plate containing various concentrations of tyrosine or PHCA (see Table 9)."}, "[2]": {"system": "tyrosine-auxotrophic E. coli strain AT2471 containing pCA18Km", "experiment": "Growth of tyrosine-auxotrophic E. coli on minimal plate with tyrosine", "format": "cell-based", "set-up": "key: −: no growth; +: very poor growth; ++: poor growth; +++: good growth", "settings": "no PHCA", "method": "as §1"}, "[3]": {"experiment": "Whole cell TAL/PAL activity ratio (follow-up assay after high throughput screen)", "format": "cell-based, E. coli", "method": "The following assay was performed to confirm that fully active mutant PAL enzyme was produced in BL21(DE3) E. coli cells. E. coli cells were grown in LB medium overnight. One mL of cell culture was pelleted and resuspended in 1 mL of 50 mM Tris-HCl buffer (pH 8.5) containing 0.5 mM tyrosine (for TAL activity measurement) or phenylalanine (for PAL activity measurement). The reaction mixture was incubated on the shaker at 37 C. for 1 hr. The reaction mixture was filtrated using 0.2 μm pore size filter (Millipore, Bedford, Mass.), and injected into HPLC (Hewlett-Packard Company, Palo Alto, Calif.). TAL or PAL activity was determined by measuring the concentration of the resulting PHCA or cinnamate. […]\n5,000 mutant colonies were picked from agarose plates and screened by high throughput assay (Example 20). The initial hits were further investigated by a follow-up assay to confirm screening results. The TAL and PAL activities were measured using the whole cell assay, described in Example 17, and then ratio of TAL/PAL activities was calculated. The following table summarizes results of the follow-up assay for four mutants with altered TAL/PAL ratios:\nA total of 5,000 mutant colonies from these three libraries were screened by high throughput assay (Example 20). Initial hits were further investigated by a follow-up HPLC assay to confirm the screening results as described in Example 21. One mutant with improved TAL/PAL ratio was found (Table 19)."}, "[4]": {"experiment": "TAL specific activity in cell free extracts", "format": "biochemical", "settings": "cell free extract of E. coli clones over-expressing PAL from pKK223-3", "method": "(§2) The PAL or TAL activity of the purified enzymes were measured using a spectrophotometer according to Abell et al., “Phenylalanine Ammonia-lyase from Yeast Rhodotorula glutinis,” Methods Enzymol. 142:242-248 (1987). The spectrophotometric assay for PAL determination was initiated by the addition of the enzyme to a solution containing 1.0 mM L-phenylalanine and 50 mM Tris-HCl (pH 8.5). The reaction was then followed by monitoring the absorbance of the product, cinnamic acid, at 290 nm using a molar extinction coefficient of 9000 cm^−1. The assay was run over a 5 min period using an amount of enzyme that produced absorbance changes in the range of 0.0075 to 0.018/min. One unit of activity indicated deamination of 1.0 μmol of phenylalanine to cinnamic acid per minute. The TAL activity was similarly measured using tyrosine in the reaction solution. The absorbance of the para-hydroxycinnamic acid produced was followed at 315 nm and the activity was determined using an extinction coefficient of 10,000 cm^−1 for PHCA. One unit of activity indicated deamination of 1.0 μmol of tyrosine to para-hydroxycinnamic acid per minute.\n(§3) The cell pellet was resuspended with 0.5 mL/g cells, 50 mM Tris-HCl buffer (pH 8.5) and disrupted by a single passage through the French Pressure Cell at 20,000 psi. The disrupted cells were then centrifuged for 30 min at 14,200×g to remove the unbroken cell mass. […]"}, "[5]": {"experiment": "PAL specific activity in cell free extracts", "format": "biochemical", "settings": "cell free extract of E. coli clones over-expressing PAL from pKK223-3", "method": "as §2, §3"}, "[6]": {"experiment": "Enzyme kinetics of purified wild type and mutant PAL, TAL activity (spectrophotometric)", "format": "biochemical", "settings": "tyrosine as substrate", "method": "as §2\n(§4) A detailed enzyme kinetics analysis using the yeast wild type and the purified mutant PAL enzyme and tyrosine or phenylalanine as substrate, was carried out. The PAL and TAL activities were measured spectrophotometrically as described in the General Methods and the KM and Vmax were determined from its Lineweaver-Burke plot. The kcat was calculated from Vmax assuming the presence of four active sites in the active tetramer."}, "[7]": {"experiment": "Enzyme kinetics of purified wild type and mutant PAL, PAL activity (spectrophotometric)", "format": "biochemical", "settings": "phenylalanine as substrate", "method": "as §2, §4"}, "[8]": {"experiment": "Ratio of TAL to PAL catalytic efficiency of purified enzymes", "format": "biochemical", "method": "as §4\nThe catalytic efficiency, defined as kcat/KM, was calculated for both the wild type and mutant enzyme. The ratio of the TAL catalytic efficiency versus the PAL of the wild type enzyme was 0.5 while that of the mutant enzymes had increased to 1.7 (see Table 11)."}, "[9]": {"experiment": "Ratio of PAL to TAL specific activity", "format": "biochemical", "settings": "purified enzyme", "protocol": "The PAL or TAL activity of the purified enzymes were measured using a spectrophotometer according to Abell et al., “Phenylalanine Ammonia-lyase from Yeast Rhodotorula glutinis,” Methods Enzymol. […] The spectrophotometric assay for PAL determination was initiated by the addition of the enzyme to a solution containing 1.0 mM L-phenylalanine and 50 mM Tris-HCl (pH 8.5). The reaction was then followed by monitoring the absorbance of the product, cinnamic acid, at 290 nm using a molar extinction coefficient of 9000 cm^−1. The assay was run over a 5 min period using an amount of enzyme that produced absorbance changes in the range of 0.0075 to 0.018/min. One unit of activity indicated deamination of 1.0 μmol of phenylalanine to cinnamic acid per minute. The TAL activity was similarly measured using tyrosine in the reaction solution. The absorbance of the para-hydroxycinnamic acid produced was followed at 315 nm and the activity was determined using an extinction coefficient of 10,000 cm^−1 for PHCA. One unit of activity indicated deamination of 1.0 μmol of tyrosine to para-hydroxycinnamic acid per minute.\nThe PAL/TAL activity was determined as described above."}, "[10]": {"settings": "from Vmax assuming four active sites"}}, "note": "Read-outs that look alike come from different tables or passages of the source."}
{"molecule": "O=C(O)C=Cc1ccc(O)cc1", "note": "[PHCA, Para-hydroxycinnamic acid]", "values": [{"measurement": "cell growth", "setting": "[1]; 0.0001-0.0002 mM PHCA", "value": "+++"}, {"measurement": "cell growth", "setting": "[1]; 0.0003-0.0005 mM PHCA", "value": "+++"}, {"measurement": "cell growth", "setting": "[1]; 0.001-0.004 mM PHCA", "value": "+++"}, {"measurement": "cell growth", "setting": "[1]; 10 mM PHCA", "value": "−"}, {"measurement": "cell growth", "setting": "[1]; 1.0-2.0 mM PHCA", "value": "++"}, {"measurement": "cell growth", "setting": "[1]; 4.0-6.0 mM PHCA", "value": "+"}, {"measurement": "toxicity to the cells", "setting": "[1]; high concentrations", "value": "toxic"}]}
{"molecule": "N[C@@H](Cc1ccc(O)cc1)C(=O)O", "note": "[Tyrosine, tyrosine]", "values": [{"measurement": "cell growth", "setting": "[2]; 0.0001-0.0002 mM tyrosine", "value": "−"}, {"measurement": "cell growth", "setting": "[2]; 0.0003-0.0005 mM tyrosine", "value": "+"}, {"measurement": "cell growth", "setting": "[2]; 0.001-0.004 mM tyrosine", "value": "+++"}]}
{"molecule": "Wild Type PAL: wildtype R. glutinis (Rhodosporidium toruloides) PAL enzyme, SEQ ID NO:8 (protein) MAPSLDSISHSFANGVASAKQAVNGASTNLAVAGSHLPTTQVTQVDIVEKMLAAPTDSTLELDGYSLNLGDVVSAARKGRPVRVKDSDEIRSKIDKSVEFLRSQLSMSVYGVTTGFGGSADTRTEDAISLQKALLEHQLCGVLPSSFDSFRLGRGLENSLPLEVVRGAMTIRVNSLTRGHSAVRLVVLEALTNFLNHGITPIVPLRGTISASGDLSPLSYIAAAISGHPDSKVHVVHEGKEKILYAREAMALFNLEPVVLGPKEGLGLVNGTAVSASMATLALHDAHMLSLLSQSLTAMTVEAMVGHAGSFHPFLHDVTRPHPTQIEVAGNIRKLLEGSRFAVHHEEEVKVKDDEGILRQDRYPLRTSPQWLGPLVSDLIHAHAVLTIEAGQSTTDNPLIDVENKTSHHGGNFQAAAVANTMEKTRLGLAQIGKLNFTQLTEMLNAGMNRGLPSCLAAEDPSLSYHCKGLDIAAAAYTSELGHLANPVTTHVQPAEMANQAVNSLALISARRTTESNDVLSLLLATHLYCVLQAIDLRAIEFEFKKQFGPAIVSLIDQHFGSAMTGSNLRDELVEKVNKTLAKRLEQTNSYDLVPRWHDAFSFAAGTVVEVLSSTSLSLAAVNAWKVAAAESAISLTRQVRETFWSAASTSSPALSYLSPRTQILYAFVREELGVKARRGDVFLGKQEVTIGSNVSKIYEAIKSGRINNVLLKMLA", "values": [{"measurement": "TAL/PAL ratio", "setting": "[3]", "value": 0.5}, {"measurement": "TAL/PAL ratio", "setting": "[3]; regional mutant amino acid No. 492-503, Table 19", "value": 0.5}, {"measurement": "TAL/PAL ratio", "setting": "[3]; summary table of mutants", "value": 0.5}, {"measurement": "highest specific activity, TAL", "setting": "[4]", "value": 0.0650, "unit": "U/mg protein"}, {"measurement": "highest specific activity, PAL", "setting": "[5]", "value": 0.244, "unit": "U/mg protein"}, {"measurement": "Km", "setting": "[6]; Lineweaver-Burke plot", "value": 111, "unit": "µM"}, {"measurement": "kcat", "setting": "[6]; [10]", "value": 0.46, "unit": "s⁻¹"}, {"measurement": "Km", "setting": "[7]; Lineweaver-Burke plot", "value": 250, "unit": "µM"}, {"measurement": "kcat", "setting": "[7]; [10]", "value": 2.09, "unit": "s⁻¹"}, {"measurement": "TAL/PAL ratio (catalytic efficiency)", "setting": "[8]", "value": 0.5}]}
{"molecule": "purified enzyme: purified PAL/TAL enzyme of Rhodosporidium toruloides (protein, UniProt P11544 1-716, looked up) Phenylalanine/tyrosine …: MAPSLDSISHSFANGVASAKQAVNGASTNLAVAGSHLPTTQVTQVDIVEKMLAAPTDSTLELDGYSLNLGDVVSAARKGRPVRVKDSDEIRSKIDKSVEFLRSQLSMSVYGVTTGFGGSADTRTEDAISLQKALLEHQLCGVLPSSFDSFRLGRGLENSLPLEVVRGAMTIRVNSLTRGHSAVRLVVLEALTNFLNHGITPIVPLRGTISASGDLSPLSYIAAAISGHPDSKVHVVHEGKEKILYAREAMALFNLEPVVLGPKEGLGLVNGTAVSASMATLALHDAHMLSLLSQSLTAMTVEAMVGHAGSFHPFLHDVTRPHPTQIEVAGNIRKLLEGSRFAVHHEEEVKVKDDEGILRQDRYPLRTSPQWLGPLVSDLIHAHAVLTIEAGQSTTDNPLIDVENKTSHHGGNFQAAAVANTMEKTRLGLAQIGKLNFTQLTEMLNAGMNRGLPSCLAAEDPSLSYHCKGLDIAAAAYTSELGHLANPVTTHVQPAEMANQAVNSLALISARRTTESNDVLSLLLATHLYCVLQAIDLRAIEFEFKKQFGPAIVSLIDQHFGSAMTGSNLRDELVEKVNKTLAKRLEQTNSYDLVPRWHDAFSFAAGTVVEVLSSTSLSLAAVNAWKVAAAESAISLTRQVRETFWSAASTSSPALSYLSPRTQILYAFVREELGVKARRGDVFLGKQEVTIGSNVSKIYEAIKSGRINNVLLKMLA", "values": [{"measurement": "PAL/TAL ratio", "setting": "[9]", "value": 2.12}]}
